B1: BRCA1 fragment 421-988aa (domain or fragment, human, UniProt P38398 421-988, looked up)
chain: EYSGSSEKIDLLASDPHEALICKSERVHSKSVESNIEDKIFGKTYRKKASLPNLSHVTENLIIGAFVTEPQIIQERPLTNKLKRKRRPTSGLHPEDFIKKADLAVQKTPEMINQGTNQTEQNGQVMNITNSGHENKTKGDSIQNEKNPNPIESLEKESAFKTKAEPISSSISNMELELNIHNSKAPKKNRLRRKSSTRHIHALELVVSRNLSPPNCTELQIDSCSSSEEIKKKKYNQMPVRHSRNLQLMEGKEPATGAKKSNKPNEQTSKRHDSDTFPELKLTNAPGSFTKCSNTSELKEFVNPSLPREEKEEKLETVKVSNNAEDPKDLMLSGERVLQTERSVESSSISLVPGTDYGTQESISLLEVSTLGKAKTEPNKCVSQCAAFENPKGLIHGCSKDNRNDTEGFKYPLGHEVNHSRETSIEMEESELDAQYLQNTFKVSKRQSFAPFSNPGNAEEECATFSAHSGSLKKQSPKVTFECEQKEENQGKNESNIKPVQTVNITAGFPVVGQKDKPVDNAKCSIKGGSRFCLSSQFRGNETGLITPNKHGLLQNPYRIPPLFPIKS
B2: BRCA1 281-701aa (domain or fragment, human, UniProt P38398 281-701, looked up)
chain: SSLQHENSSLLLTKDRMNVEKAEFCNKSKQPGLARSQHNRWAGSKETCNDRRTPSTEKKVDLNADPLCERKEWNKQKLPCSENPRDTEDVPWITLNSSIQKVNEWFSRSDELLGSDDSHDGESESNAKVADVLDVLNEVDEYSGSSEKIDLLASDPHEALICKSERVHSKSVESNIEDKIFGKTYRKKASLPNLSHVTENLIIGAFVTEPQIIQERPLTNKLKRKRRPTSGLHPEDFIKKADLAVQKTPEMINQGTNQTEQNGQVMNITNSGHENKTKGDSIQNEKNPNPIESLEKESAFKTKAEPISSSISNMELELNIHNSKAPKKNRLRRKSSTRHIHALELVVSRNLSPPNCTELQIDSCSSSEEIKKKKYNQMPVRHSRNLQLMEGKEPATGAKKSNKPNEQTSKRHDSDTFPELK

Molecular target: the molecule itself
Experiment: atomic force microscopy

| Protein | stoichiometry N | binding result |
| --- | --- | --- |
| B1 | 2 |  |
| B2 |  | binds |

From PMC4737671 (International Journal of Biological Sciences, 2016)
